Assay results published in article PMC8324831, “A synthetic nanobody targeting RBD protects hamsters from SARS-CoV-2 infection” (Nature Communications, 2021).
Positions count from the first letter of the chain named.

B1: SR59 (VHH)
VHH: QVQLVESGGGLVQAGGSLRLSCAASGFPVKTSRMYWYRQAPGKEREWVAAIISYGSVTFYADSVKGRFTISRDNAKNTVYLQMNSLKPEDTAVYYCYVYVGAQYWGQGTQVTVS
B2: SR60 (VHH)
VHH: QVQLVESGGGLVQAGGSLRLSCAASGFPVEHAQMAWYRQAPGKEREWVAAIQSYGSTTYYADSVKGRFTISRDNAKNTVYLQMNSLKPEDTAVYYCAVHVGFWYAGQGTQVTVS
B3: SR61 (VHH)
VHH: B2 VHH with E30D, H31I, Q33E, Q52G, Y54Q, S56M, Y59H
B4: SR62 (VHH)
VHH: QVQLVESGGGLVQAGGSLRLSCAASGFPVFQENMHWYRQAPGKEREWVAAIYSQGSYTLYADSVKGRFTISRDNAKNTVYLQMNSLKPEDTAVYYCEVNVGQWYYGQGTQVTVS
B5: MR1 (VHH)
VHH: QVQLVESGGGLVQVGGSLRLSCAASGFPVYHSIMHWYRQAPGKEREWVAAIYSSGAHTYYADSVKGRFTISRDNAKNTVYLQMNSLKPEDTAVYYCNVKDGGNWDHTYDYWGQGTQVTVS
B6: MR2 (VHH)
VHH: QVQLVESGGGLVQAGGSLRLSCAASGFPVYFSYMAWYRQAPGKEREWVAAINSEGDSTTYADSVKGRFTISRDNAKNTVYLQMNSLKPEDTAVYYCNVKDYGWYNSQYDYWGQGTQVTVS
B7: MR5 (VHH)
VHH: QVQLVESGGGLVQAGGSLRLSCAASGFPVDAWEMAWYRQAPGKEREWVAAIRSFGRRTHYADSVKGRFTISRDNAKNTVYLQMNSLKPEDTAVYYCNVKDFGTHTQEYDYWGQGTQVTVS
B8: MR6 (VHH)
VHH: QVQLVESGGGLVQAGGSLRLSCAASGFPVEDTWMEWYRQAPGKEREWVAAITSWGFKTYYADSVKGRFTISRDNAKNTVYLQMNSLKPEDTAVYYCNVKDEGDTSASYDYWGQGTQVTVS
B9: MR7 (VHH)
VHH: QVQLVESGGGLVQAGGSLRLSCAASGFPVNSWMEWYRQAPGKEREWVAAITSYGYKTYYADSVKGRFTISRDNAKNTVYLQMNSLKPEDTAVYYCNVKDEGYFSDEYDYWGQGTQVTVS
B10: MR8 (VHH)
VHH: QVQLVESGGGLVQAGGSLRLSCAASGFPVEWAHMHWYRQAPGKEREWVAAIVSAGHYTVYADSVKGRFTISRDNAKNTVYLQMNSLKPEDTAVYYCNVKDWGSSNQYYDYWGQGTQVTVS
B11: MR9 (VHH)
VHH: B8 VHH with E30A, D31S, W54Y, F56Y, K57H, D103Y, T104F, A106T, S107N
B12: MR10 (VHH)
VHH: B8 VHH with E30A, D31N, W54Y, F56Y, K57R, D103A, S105T, A106K, S107V
B13: MR11 (VHH)
VHH: QVQLVESGGGLVQAGGSLRLSCAASGFPVEWTSMVWYRQAPGKEREWVAAIYSAGHHTKYADSVKGRFTISRDNAKNTVYLQMNSLKPEDTAVYYCNVKDYGHDRSNYDYWGQGTQVTVS
B14: MR12 (VHH)
VHH: B10 VHH with A32S, A54T, H56E, V59K, G102Y, S103G, S104Q, N105A, Q106K, Y107S
B15: MR13 (VHH)
VHH: QVQLVESGGGLVQAGGSLRLSCAASGFPVKNMNMHWYRQAPGKEREWVAAIYSYGVETHYADSVKGRFTISRDNAKNTVYLQMNSLKPEDTAVYYCNVKDWGSYMNWYDYWGQGTQVTVS
B16: MR14 (VHH)
VHH: B10 VHH with E30M, W31Y, A32T, A54L, H56E, V59T, S103A, S104A, Q106K
B17: MR15 (VHH)
VHH: B9 VHH with N30D, S31T, E100F, F103A, D105T, E106Y
B18: MR16 (VHH)
VHH: B8 VHH with D31R, W54Y, F56Y, K57R, D103S, T104A, A106S, S107A
B19: MR18 (VHH)
VHH: QVQLVESGGGLVQAGGSLRLSCAASGFPVWEHHMAWYRQAPGKEREWVAAITSKGRYTTYADSVKGRFTISRDNAKNTVYLQMNSLKPEDTAVYYCHVKDAGYFDAQYDYWGQGTQVTVS
B20: MR19 (VHH)
VHH: QVQLVESGGGLVQAGGSLRLSCAASGFPVRNTEHMYWYRQAPGKEREWVAAIFSMGRFTKYADSVKGRFTISRDNAKNTVYLQMNSLKPEDTAVYYCNVKDTGSFSEGYDYWGQGTQVTVS
B21: LR2 (VHH)
VHH: QVQLVESGGGSVQAGGSLRLSCAASGDINAIGYLGWFRQAPGKEREGVAALDTDEGQTYYADSVKGRFTVSLDNAKNTVYLQMNSLKPEDTALYYCAAAMNGYNEPLYSYDYEYWGQGTQVTVS
B22: LR3 (VHH)
VHH: QVQLVESGGGSVQAGGSLRLSCAASGTINNITYLGWFRQAPGKEREGVAALITTSGYTYYADSVKGRFTVSLDNAKNTVYLQMNSLKPEDTALYYCAAASWGYEWPLVYDDYWYWGQGTQVTVS
B23: LR4 (VHH)
VHH: QVQLVESGGGSVQAGGSLRLSCAASGFIHSIYYLGWFRQAPGKEREGVAALNTQHGTTYYADSVKGRFTVSLDNAKNTVYLQMNSLKPEDTALYYCAAARWGRNYPLNYWQYSYWGQGTQVTVS
B24: LR6 (VHH)
VHH: B22 VHH with T27S, N29S, N30S, I52V, Y57N, S100T, E104S, V108E, Y109H, D111E
B25: LR7 (VHH)
VHH: QVQLVESGGGSVQAGGSLRLSCAASGSISSITYLGWFRQAPGKEREGVAALITNWGHTYYADSVKGRFTVSLDNAKNTVYLQMNSLKPEDTALYYCAAAFHGEQYPLYTNKYHYWGQGTQVTVS
B26: LR8 (VHH)
VHH: QVQLVESGGGSVQAGGSLRLSCAASGTIAYIKYLGWFRQAPGKEREGVAALMTRWGETYYADSVKGRFTVSLDNAKNTVYLQMNSLKPEDTALYYCAAANYGANFPLQANTYFYWGQGTQVTVS
B27: LR9 (VHH)
VHH: B22 VHH with T27S, N29S, N30S, T54A, S55R, Y57R, S100N, E104N, V108A, D110S
B28: LR10 (VHH)
VHH: QVQLVESGGGSVQAGGSLRLSCAASGTISSITYLGWFRQAPGKEREGVAALTTNNGHTYYADSVKGRFTVSLDNAKNTVYLQMNSLKPEDTALYYCAAADWGYDWPLDRYHYWYWGQGTQVTVS
B29: LR11 (VHH)
VHH: QVQLVESGGGSVQAGGSLRLSCAASGSISSITYLGWFRQAPGKEREGVAALVTHSGSTYYADSVKGRFTVSLDNAKNTVYLQMNSLKPEDTALYYCAAAYWGWDWPLNSQDYWYWGQGTQVTVS
B30: LR12 (VHH)
VHH: B26 VHH with T27S, Y30S, N100E, Y101C, F105S, Q108H, N110K, T111D, F113S
B31: LR13 (VHH)
VHH: B29 VHH with V52I, S55A, S57R, Y100D, D104Y, N108V, S109I, Q110D, D111H, W113E
B32: LR14 (VHH)
VHH: B28 VHH with T27S, S29P, S30G, T52V, N55S, D104Q, R109K, Y110A, H111E
B33: LR15 (VHH)
VHH: B28 VHH with T27S, T52K, N54A, N55S, H57Q, D104N, D108I, Y110E, H111E, W113E
B34: LR16 (VHH)
VHH: B29 VHH with V52Y, H54T, S55H, S57Y, Y100D, W103Y, D104N, W105I, S109I, Q110T
B35: LR17 (VHH)
VHH: B26 VHH with T27S, Y30H, W55H, E57Q, N100Y, Q108F, A109Q, N110T, T111G, F113T

Target: SARS-CoV-2 S-RBD with Avi-tag and deca-His tag (residues 330-531) (SARS-CoV-2, UniProt P0DTC2, biotin on the Avi tag (BirA) where immobilised on streptavidin sensors or used in ELISA and FSEC)

Binder	binding result
B1	binds
B2	binds
B3	binds
B4	binds
B5	binds
B6	binds
B7	binds
B8	binds
B9	binds
B10	binds
B11	binds
B12	binds
B13	binds
B14	binds
B15	binds
B16	binds
B17	binds
B18	binds

Binder	binding result
B19	binds
B20	binds
B21	binds
B22	binds
B23	binds
B24	binds
B25	binds
B26	binds
B27	binds
B28	binds
B29	binds
B30	binds
B31	binds
B32	binds
B33	binds
B34	binds
B35	binds
